From US20260035464A1 (STAIDSON BIOPHARMA, published 2026) come the findings set out here.

Experiment [1] has as its target T1, human BTLA extracellular domain with C-terminal 10xHis tag (human, UniProt Q7Z6A9 31-157).
T1 construct: also called HuBTLA-His; His-tag-huBTLA
T1 sequence: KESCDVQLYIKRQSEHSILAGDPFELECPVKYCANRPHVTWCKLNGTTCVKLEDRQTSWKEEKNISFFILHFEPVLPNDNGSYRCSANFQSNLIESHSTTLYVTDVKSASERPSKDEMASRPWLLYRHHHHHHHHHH
Description: BLI (Octet RED96), antibody captured on AHC biosensor, His-tag-huBTLA in solution, 1:1 model. As to the method:
(§1) The following kinetic assay was performed using anti-human IgG Fc capture (AHC) biosensors (ForteBio) in kinetics buffer (PBS, 0.1% Tween-20 and 1% bovine serum albumin): (a) antibody (2 μg/mL) for 300 sec, (b) baseline for 120 sec, (c) association with purified His-tag-huBTLA (2.5, 0.5 and 0 μg/mL) and His-tag-rhesus monkey BTLA (Sino Biologcal, cat #90250-C08H) (2.5, 0.5 and 0 μg/mL) for 420 sec and (d) dissociation for 1200 sec. Data fitting and analysis was performed with Octet data analysis software 8.0 (ForteBio) using a 1:1 binding model after Savitzky-Golay filtering.

For experiment [2], the target named is T2, human BTLA extracellular domain with C-terminal mouse IgG2a Fc tag (human; mouse, UniProt Q7Z6A9 31-157).
T2 construct: also called huBTLA with mIgG2a Fc tag; not shown: mouse IgG2a Fc, C-terminal
T2 sequence: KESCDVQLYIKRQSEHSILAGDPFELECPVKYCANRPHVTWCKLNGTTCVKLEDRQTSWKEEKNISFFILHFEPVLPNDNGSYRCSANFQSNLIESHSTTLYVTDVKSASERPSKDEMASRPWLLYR
Put plainly: blocking ELISA, huBTLA-mIgG2a Fc coated; competitor huHVEM-His (2 ug/ml). The protocol: HVEM blocking by purified recombinant chimeric antibodies by ELISA: Human HVEM (huHVEM) blocking ELISA was performed on purified recombinant chimeric anti-BTLA antibodies. Briefly, 384-well, clear flat bottom high binding plates (Corning, cat #3700) were coated overnight at 4° C. with 0.333 μg/mL purified huBTLA with mIgG2a Fc tag in PBS (coating solution). After removing the coating solution, the plates were blocked by adding blocking buffer and incubated at 37° C. for 1 hour. Plates were then washed 3 times with wash buffer. Serial dilution of purified chimeric antibodies in PBS were added to individual well followed by incubation at 37° C. for 1 hour. Plates were washed 3 times with wash buffer. Then 30 μL per well of 2 μg/ml human HVEM with His tag (Sino Biological, cat #10334-H08H) in assay buffer was added into the reaction and incubated for 1 hour. Plates were washed 3 times with wash buffer. Then 30 μL per well of mouse anti-his-AP (Southern Biotech, cat: 4603-04) at 1:500 dilution in ELISA diluent was added, and incubated at 37° C. for 30 min, then the plates were washed 5 times with wash buffer and developed for 30 minutes with 30 μL per well of pNPP substrate. Plates were analyzed with a Bio-TEK at 405 nm. The blocking IC₅₀ value represents the antibody concentration that inhibited 50% of huHVEM binding to coated human BTLA.

In experiment [3] the target is T3, human BTLA (Uniprot Q7Z6A9) expressed on cells (human, UniProt Q7Z6A9 31-289). Description: cell-based or functional assay.
The target of experiment [4] is T3, human BTLA (Uniprot Q7Z6A9) expressed …. Put plainly: flow cytometry blocking on huBTLA-overexpressing Expi293 cells; competitor human HVEM-mouse IgG2a Fc. As to the method:
(§2) Expi293 cells stably overexpressing huBTLA were incubated with chimeric anti-BTLA antibody 83F2 or 86B7 for 30 minutes at 4° C. The cells were washed, and then incubated with human HVEM-mouse IgG2a Fc recombinant protein (Acro Biosystems, cat #HVM-H5255) at […] concentration for 20 minutes at 4° C. The human HVEM bindings were detected by goat anti-mouse Alexa 488 secondary antibody (ThermoFisher, cat #A-11029). Cells were washed and acquired by flow cytometry with Attune. Data were analyzed with FlowJo software. BTLA binding is represented as MFI.

Experiment [5] deals with T4, huBTLA as coated in the binding ELISA of Example 3 (tag not stated) (human, UniProt Q7Z6A9 31-157).
T4 construct: Detection was with anti-human IgG Fc
T4 sequence: T2 sequence
Description: ELISA, huBTLA coated at 0.333 ug/mL, anti-human IgG Fc-AP detection. As to the method:
(§3) BTLA binding of purified recombinant chimeric antibodies by ELISA: The huBTLA and rhesus monkey BTLA antigen binding ELISA was performed on the purified recombinant chimeric antibodies. Briefly, 384-well, clear flat bottom high binding plates (Corning, cat #3700) were coated overnight at 4° C. with 0.333 μg/mL of huBTLA or rhesus monkey BTLA in PBS. The following purified process was performed as described in ELISA binding assay in Example 2, except that the secondary antibody was goat anti human IgG Fc-AP (Southern Biotech, cat #2014-04).

Experiment [6] addresses T4, huBTLA as coated in the binding ELISA …. Put plainly: ELISA, plate coated with huBTLA, detection with goat anti-human IgG Fc-AP, OD405. As to the method: as §3
The target in experiment [7] is T5, rhesus monkey BTLA extracellular domain protein with His tag (Sino Biological, cat #90250-C08H) (rhesus monkey, UniProt G7MKA9 31-157).
T5 construct: extracellular domain; Bought protein; also called His-tag-rhesus monkey BTLA; not shown: His tag
T5 sequence: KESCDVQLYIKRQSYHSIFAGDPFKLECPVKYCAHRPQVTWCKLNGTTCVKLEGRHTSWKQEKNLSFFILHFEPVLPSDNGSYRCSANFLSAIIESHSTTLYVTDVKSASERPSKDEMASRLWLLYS
Put plainly: ELISA, rhesus monkey BTLA coated at 0.333 ug/mL, anti-human IgG Fc-AP detection. The protocol: as §3

The target in experiment [8] is T3, human BTLA (Uniprot Q7Z6A9) expressed …. Description: flow cytometry on Expi293 cells stably overexpressing huBTLA, PE anti-human Fc. An excerpt:
To examine the binding of the chimeric anti-BTLA antibodies to huBTLA overexpressing cells, Expi293 cells stably overexpressing huBTLA were used to perform FACS analysis. Briefly, the coding sequence of huBTLA (Uniprot, Q7Z6A9) was cloned into a lentiviral vector and the recombinant virus was packaged according to the instruction of the virus packaging kit (Lenti-X™ Packaging Single Shots, Cat #631275, Takada). The Expi293 cells were transduced with the recombinant virus.
(§4) Expi293 cells stably overexpressing huBTLA were incubated with the chimeric anti-BTLA antibodies 83F2 or 86B7 in PBS containing 0.5% BSA, 1 mM EDTA, and 0.1% sodium azide (FACS buffer) for 30 minutes at 4° C. The cells were washed, and then incubated with 10 nM phycoerythrin (PE) conjugated anti-Human Fc Ab (BioLegend, cat #409304) for 20 minutes at 4° C. Cells were washed and then analyzed by flow cytometry with Attune (ThermoFisher Scientific). Data were analyzed with FlowJo software. Antibody binding is represented as median fluorescence intensity (MFI).

The target in experiment [9] is T5, rhesus monkey BTLA extracellular domain …. Put plainly: ELISA, plate coated with rhesus monkey BTLA, detection with goat anti-human IgG Fc-AP, OD405. The protocol: as §3
In experiment [10] the target is T3, human BTLA (Uniprot Q7Z6A9) expressed …. Put plainly: cell-based or functional assay. The source holds these as a separate data set.
For experiment [11] the target is unchanged. Description: flow cytometry on huBTLA-overexpressing Expi293 cells, MFI. The protocol:
as §4
FACS based binding assays of humanized anti-BTLA antibodies were performed as described above in Example 3.

For experiment [12] the target is unchanged. Description: flow cytometry blocking assay, Expi293-huBTLA cells pre-incubated with titrated SB2003-12, then His-mouse HVEM (concentration not given) and PE anti-His antibody. The protocol: (§5) Cells were washed and stained with PE conjugated anti-His antibody (Thermofisher Scientific, CAT: TA150130). For antibody blocking assay, the exemplary humanized anti-BTLA antibody SB2003-12 was pre-incubated with the cell line followed by mouse HVEM and anti-His antibody staining. Cells were washed and fixed with 2% PFA and were analyzed by flow cytometry with Attune. MFI of HVEM staining was analyzed with FlowJo software.

The target is the same in experiment [13]. Description: flow cytometry blocking assay on huBTLA-overexpressing Expi293 cells, antibody titrated, soluble human HVEM-mouse IgG2a Fc detected. As to the method: as §2
FACS based blocking assays of humanized anti-BTLA antibodies were performed as described above in Example 3.

Experiment [14] deals with T6, extracellular domain of human BTLA with FAS, expressed on Jurkat cells (human, UniProt Q7Z6A9 31-157; P25445 174-335, limits assumed).
T6 sequence (looked up): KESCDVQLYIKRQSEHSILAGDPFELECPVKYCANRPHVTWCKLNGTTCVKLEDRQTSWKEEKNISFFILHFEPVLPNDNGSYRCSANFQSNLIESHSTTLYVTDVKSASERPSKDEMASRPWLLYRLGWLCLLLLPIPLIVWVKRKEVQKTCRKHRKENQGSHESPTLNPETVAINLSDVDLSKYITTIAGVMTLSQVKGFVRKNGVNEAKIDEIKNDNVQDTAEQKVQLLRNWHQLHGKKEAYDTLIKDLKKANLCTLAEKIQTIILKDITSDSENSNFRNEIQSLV
Description: cell-based or functional assay.

The target of experiment [15] is T1, human BTLA extracellular domain with …. Description: BLI (Octet RED96), antibody on AHC biosensor, His-tag-huBTLA in solution; column head prints nM, but Koff/Kon shows the values are in M. As to the method: as §1
(§6) Binding affinities (monovalent Kd) of humanized anti-BTLA antibodies were determined using Biolayer interferometry on the Octet RED96 instrument (ForteBio) as described above in Example 3, except for (c) association with His-tag-huBTLA ([…]) for 420 sec.

For experiment [16] the target is unchanged. Put plainly: BLI (Octet RED96), antibody on AHC biosensor, His-tag-huBTLA in solution. The protocol:
as §1, §6

Experiment [17] concerns the target T3, human BTLA (Uniprot Q7Z6A9) expressed …. Put plainly: flow cytometry, His-mouse HVEM on Expi293-huBTLA cells, PE anti-His antibody, MFI. As to the method:
as §5

B1: chimeric anti-BTLA antibody 83F2 (antibody, V domains shown)
VH: QVQFQQSGAELARPGASVKLSCKASGYTFTDFWIQWVKQRPGQGLEWIGTIYPGDGDTRENQKFKGRATLTADKSSSTAYMQLSSLESDDSAVYYCARGNGNSWFAYWGQGTLVTVSA
VL: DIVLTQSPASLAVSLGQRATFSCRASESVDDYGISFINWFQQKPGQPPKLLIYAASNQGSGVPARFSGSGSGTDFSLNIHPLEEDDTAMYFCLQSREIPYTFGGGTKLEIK
Turning to B1, binding in experiment [1] was characterised by a dissociation constant (Kd) of 2.91 nM. Also, the koff in [1] came to 0.000548 s⁻¹. The kon in [1] came out at 188000 M⁻¹ s⁻¹. The IC50 was 1.24 nM in [2] and 0.656 nM in experiment [4]. Also, in experiment [3], the “EC50 of recovery of IL-2 production, Raji-HVEM/Jurkat-BTLA coculture” value is 1.85 nM. Further, the results for the EC50 in experiment [5], in experiment [7] and in experiment [8] were 0.0564 nM, 0.0542 nM and 1.85 nM, respectively. The half-maximal effective concentration (EC50 (read off the curve)) in experiment [6] and in [9] was approximately 0.4 nM each time.

B2: humanized anti-BTLA antibody SB2003-12 (antibody, V domains shown)
VH: QVTLKESGPTLVKPTQTLTLTCTFSGFSLSTFGMGVSWIRQPPGKALEWLAHIYWDDDKRFNPSLKSRLTITKDTSKNQVVLTMTNMDPVDTATYYCAHGNWDGETYFDYWGQGTLVTVSS
VL: DVVMTQSPLSLPVTLGQPASISCKSTQSLLDSDGKTYLNWLQQRPGQSPRSLIYLVSKLDSGVPDRFSGSGSGTDFTLKISRVEAEDVGVYYCWQGTHFPWTFGQGTKVEIK
B2: the “EC50 of recovery of IL-2 production, Raji-HVEM/primary human T cell coculture” value in experiment [10] is 4.91 nM. Moreover, in experiment [11], the “EC50 (read off the curve)” value is approximately 0.8 nM. In experiment [12], the “IC50 (read off the curve)” value is approximately 2 nM. The “IC50 (read off the curve)” value in experiment [13] is approximately 0.4 nM. Also, in experiment [14], the “EC50 of inhibition of huHVEM-Fc-induced apoptosis, Jurkat-huBTLA-FAS cells (ATP luminescence)” value was 0.0614 nM. Also, binding in experiment [15] was characterised by a dissociation constant (Kd) of 0.198 nM. Moreover, in experiment [16], the koff was 8.05e-05 s⁻¹ and the kon turned out to be 418000 M⁻¹ s⁻¹.

B3: His-mouse HVEM protein (Sino Biological, cat #10567-M03H) (ligand, UniProt Q80WM9 39-206, looked up)
chain: QPSCRQEEFLVGDECCPMCNPGYHVKQVCSEHTGTVCAPCPPQTYTAHANGLSKCLPCGVCDPDMGLLTWQECSSWKDTVCRCIPGYFCENQDGSHCSTCLQHTTCPPGQRVEKRGTHDQDTVCADCLTGTFSLGGTQEECLPWTNCSAFQQEVRRGTNSTDTTCSSQ
notes: Bought protein; also called musHVEM; not shown: His tag
Turning to B3, in experiment [17], the “EC50 (read off the curve)” value was approximately 2 nM.
